From patent publication US20120230939A1 (BOARD OF TRUSTEES OF THE UNIVERSITY OF ILLINOIS, published 2012) come the findings set out here.

The target in assay [1] is T1, HLA-A0201 (human).
T1 construct: whole, on cells; also called HLA-A201; HLA-A2
As to the kind of experiment: cell-based or functional assay.

Assay [2] concerns the target T1, HLA-A0201. In words: T2 binding assay: stabilisation of HLA-A2 on T2 cells, flow cytometry.
Excerpt: HLA-A2 expression was visualized by direct staining with FITC conjugated MA2.1 antibody or an isotype control (BD Biosciences, San Diego, Calif.) followed by analysis on a FC500 flow cytometer (Beckman Coulter, Miami, Fla.).
The target of assay [3] is T1, HLA-A0201. In words: T2 binding assay: HLA-A2 expression on T2 cells, flow cytometry.
Description: Briefly, T2 cells (5×10⁵/well) were pulsed with PSA-peptide or DMSO at the designated concentration and cultured in 24-well plates overnight (18 hours) at 37° C. in 5% CO₂ atmosphere.

As for anti-HLA-A2 monoclonal antibody (BB7.2), the fold decrease in cytolytic activity of CD8+ CTL induced with TEM8 298-306 against HepG2 targets (12-hour chromium release assay) with HLA-A0201 [1] is 2 fold.
In the case of TLNEKPFSV (Synthetic peptide, >95% purity) [TEM8 266-274 peptide], in the assay with HLA-A0201 [2], the binding result is “no binding (tested: 1 to 80 ug/ml)”.
Take SMNDGLSFI (Synthetic peptide, >95% purity) [TEM8 298-306 peptide]: the binding result in the assay with HLA-A0201 [2] was “binds”.

B1: PSA 210-230 peptide (peptide)
peptide: CALPERPSLYTKVVHYRKWIK
notes: Synthetic peptide, >95% purity, bought from Research Genetics Inc; also called 21-mer PSA 210-230 peptide
With B1, the binding result with HLA-A0201 [3] was “binds”.
On to ALQGIIHSI (Synthetic peptide, >95% purity) [TEM8 207-215 peptide], for which the binding result with HLA-A0201 [2] was “binds”.
